The numbers were not newly measured in paper PMC11736853, which cites them from elsewhere.

Where two headings read alike, the source gives them in different places.

Series [1] has as its target AIF peptide 40 (Homo sapiens) (UniProt O95831). Kind of series: SPR.
In series [2] the target is AIF peptide 39 (Homo sapiens) (UniProt O95831). Kind of series: SPR. On the technique in general: SPR reads the build-up and loss of mass on a sensor chip optically.
The target is the same in series [3].
Series [4] deals with AIF bicyclic peptide 63 (Homo sapiens) (UniProt O95831).
Series [5] deals with iNOS peptide 24 (Homo sapiens) (UniProt P35228). The experiment in a line: ITC. For orientation: ITC needs no label: the signal is the heat of the interaction.
Series [6] has as its target CK2β triazole cyclised peptide (Homo sapiens) (UniProt P67870). The experiment in a line: ITC.
For series [7], the target named is R6IP peptide 64 (Homo sapiens) (UniProt Q6IQ26).
Series [8] has as its target BCL9 peptide 53 347-381 (Homo sapiens) (UniProt O00512). The experiment in a line: competitive FP.
Series [9] has as its target BCL9 peptide 54 351-375 (Homo sapiens) (UniProt O00512). Kind of series: competitive FP.
Series [10] addresses BCL9 peptide 53 347-381 (Homo sapiens) (UniProt O00512). Kind of series: FP.
The target in the next series is RAP1 (Homo sapiens) (UniProt Q9NYB0).
In series [11] the target is TRF2 41-residue sequence (Homo sapiens) (UniProt Q15554).
In series [12] the target is Nrf2 peptide 41 (Homo sapiens) (UniProt Q16236).
Chain of Nrf2 peptide 41 (Homo sapiens) (Q16236 whole entry, looked up, tested part not stated): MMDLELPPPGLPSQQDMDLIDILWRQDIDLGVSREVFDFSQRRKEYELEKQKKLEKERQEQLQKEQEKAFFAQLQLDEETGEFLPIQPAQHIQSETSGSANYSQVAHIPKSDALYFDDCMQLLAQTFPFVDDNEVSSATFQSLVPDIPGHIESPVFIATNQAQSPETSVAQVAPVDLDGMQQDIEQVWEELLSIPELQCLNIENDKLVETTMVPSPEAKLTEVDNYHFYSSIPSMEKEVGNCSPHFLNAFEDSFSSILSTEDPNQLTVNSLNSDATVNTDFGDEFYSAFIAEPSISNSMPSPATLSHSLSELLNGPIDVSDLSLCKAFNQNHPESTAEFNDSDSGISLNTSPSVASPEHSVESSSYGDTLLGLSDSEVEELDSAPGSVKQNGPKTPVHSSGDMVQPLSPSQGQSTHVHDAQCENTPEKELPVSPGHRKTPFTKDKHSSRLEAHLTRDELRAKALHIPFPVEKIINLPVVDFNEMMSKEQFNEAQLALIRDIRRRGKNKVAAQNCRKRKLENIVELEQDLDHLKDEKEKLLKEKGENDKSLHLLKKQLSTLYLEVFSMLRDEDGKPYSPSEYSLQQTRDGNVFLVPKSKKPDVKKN

Chain of β-catenin (P35222 2-781): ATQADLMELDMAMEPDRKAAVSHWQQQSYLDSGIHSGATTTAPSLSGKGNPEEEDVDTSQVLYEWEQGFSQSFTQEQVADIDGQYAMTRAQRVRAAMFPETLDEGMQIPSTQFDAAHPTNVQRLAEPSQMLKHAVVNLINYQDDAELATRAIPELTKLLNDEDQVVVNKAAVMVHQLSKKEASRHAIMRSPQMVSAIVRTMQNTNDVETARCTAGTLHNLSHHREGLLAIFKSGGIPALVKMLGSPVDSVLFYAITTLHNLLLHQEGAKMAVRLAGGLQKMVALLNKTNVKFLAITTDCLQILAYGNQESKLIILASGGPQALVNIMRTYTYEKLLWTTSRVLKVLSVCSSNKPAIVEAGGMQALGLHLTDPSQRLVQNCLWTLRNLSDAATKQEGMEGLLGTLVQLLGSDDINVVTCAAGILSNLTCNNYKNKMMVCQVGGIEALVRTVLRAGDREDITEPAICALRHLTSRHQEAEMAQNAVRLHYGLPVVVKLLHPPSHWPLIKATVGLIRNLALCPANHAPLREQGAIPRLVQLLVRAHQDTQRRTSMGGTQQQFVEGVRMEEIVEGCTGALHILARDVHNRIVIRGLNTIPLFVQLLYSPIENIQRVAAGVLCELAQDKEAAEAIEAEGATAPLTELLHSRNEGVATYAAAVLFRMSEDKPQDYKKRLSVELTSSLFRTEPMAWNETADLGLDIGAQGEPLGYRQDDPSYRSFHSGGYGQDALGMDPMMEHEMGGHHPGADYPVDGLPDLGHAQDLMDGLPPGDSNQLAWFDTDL
Chain of CypA (P62937 2-165): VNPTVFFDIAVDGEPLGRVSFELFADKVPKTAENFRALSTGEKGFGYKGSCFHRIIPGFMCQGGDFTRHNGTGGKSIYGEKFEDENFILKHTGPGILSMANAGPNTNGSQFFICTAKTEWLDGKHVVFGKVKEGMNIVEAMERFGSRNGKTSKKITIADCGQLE
Chain of AIF peptide 39 (Homo sapiens) (O95831 370-394): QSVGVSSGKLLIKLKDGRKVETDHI
Chain of BCL9 peptide 53 347-381 (Homo sapiens) (O00512 347-381): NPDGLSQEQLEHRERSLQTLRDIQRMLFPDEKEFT
Chain of RAP1 (Q9NYB0 2-399): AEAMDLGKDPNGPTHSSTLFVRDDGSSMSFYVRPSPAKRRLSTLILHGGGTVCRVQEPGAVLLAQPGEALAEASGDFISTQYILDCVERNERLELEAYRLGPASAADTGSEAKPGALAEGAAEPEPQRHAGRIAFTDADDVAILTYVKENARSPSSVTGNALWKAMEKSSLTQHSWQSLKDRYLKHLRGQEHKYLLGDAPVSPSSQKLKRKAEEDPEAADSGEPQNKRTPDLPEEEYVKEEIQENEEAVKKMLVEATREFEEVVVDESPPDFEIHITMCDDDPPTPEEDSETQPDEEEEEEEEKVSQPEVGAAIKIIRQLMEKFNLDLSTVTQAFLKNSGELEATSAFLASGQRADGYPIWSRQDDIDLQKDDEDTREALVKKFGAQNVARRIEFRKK
Chain of RAP1 (Homo sapiens) (Q9NYB0 2-399): as above
Chain of CK2β triazole cyclised peptide (Homo sapiens) (P67870 2-215): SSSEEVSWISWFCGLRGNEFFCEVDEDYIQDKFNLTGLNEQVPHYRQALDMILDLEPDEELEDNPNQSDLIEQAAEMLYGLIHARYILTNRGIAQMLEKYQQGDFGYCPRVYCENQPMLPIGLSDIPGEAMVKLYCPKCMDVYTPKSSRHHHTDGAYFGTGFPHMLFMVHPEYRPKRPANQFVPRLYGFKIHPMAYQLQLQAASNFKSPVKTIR
Chain of Keap1 (Q14145 whole entry): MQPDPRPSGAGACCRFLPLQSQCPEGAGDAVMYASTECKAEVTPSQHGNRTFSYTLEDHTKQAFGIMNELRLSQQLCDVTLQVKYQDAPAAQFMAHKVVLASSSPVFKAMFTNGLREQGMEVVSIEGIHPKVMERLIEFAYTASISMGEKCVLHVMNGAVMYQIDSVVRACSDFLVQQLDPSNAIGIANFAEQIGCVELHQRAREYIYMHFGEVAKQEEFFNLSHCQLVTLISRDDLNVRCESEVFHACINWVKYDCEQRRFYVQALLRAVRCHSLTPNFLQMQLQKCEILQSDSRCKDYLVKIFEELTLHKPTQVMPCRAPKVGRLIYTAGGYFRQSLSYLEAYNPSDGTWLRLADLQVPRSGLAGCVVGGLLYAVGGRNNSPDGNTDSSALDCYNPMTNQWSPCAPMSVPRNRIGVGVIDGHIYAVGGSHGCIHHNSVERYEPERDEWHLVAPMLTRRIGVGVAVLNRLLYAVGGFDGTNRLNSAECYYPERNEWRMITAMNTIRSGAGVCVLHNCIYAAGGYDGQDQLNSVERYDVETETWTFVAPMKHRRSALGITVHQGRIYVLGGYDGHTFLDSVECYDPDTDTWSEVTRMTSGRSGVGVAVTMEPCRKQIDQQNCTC
Chain of AIF peptide 40 (Homo sapiens) (O95831 whole entry, looked up, tested part not stated): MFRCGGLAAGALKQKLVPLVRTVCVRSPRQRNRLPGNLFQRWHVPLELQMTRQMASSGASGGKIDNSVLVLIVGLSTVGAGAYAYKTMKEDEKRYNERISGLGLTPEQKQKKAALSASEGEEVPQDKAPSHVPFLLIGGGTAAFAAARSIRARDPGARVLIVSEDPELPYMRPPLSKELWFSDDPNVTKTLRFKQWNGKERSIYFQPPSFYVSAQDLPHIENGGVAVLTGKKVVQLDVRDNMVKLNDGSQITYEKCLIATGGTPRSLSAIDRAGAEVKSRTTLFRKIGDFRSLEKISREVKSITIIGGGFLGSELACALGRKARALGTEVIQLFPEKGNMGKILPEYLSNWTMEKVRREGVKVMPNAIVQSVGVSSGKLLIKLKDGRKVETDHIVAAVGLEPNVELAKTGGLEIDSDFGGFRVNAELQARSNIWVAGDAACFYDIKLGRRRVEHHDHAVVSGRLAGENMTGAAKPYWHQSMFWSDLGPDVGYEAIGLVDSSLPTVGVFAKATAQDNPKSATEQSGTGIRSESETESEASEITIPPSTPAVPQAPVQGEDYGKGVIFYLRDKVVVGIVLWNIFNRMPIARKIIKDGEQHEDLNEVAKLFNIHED
Chain of BCL9 peptide 54 351-375 (Homo sapiens) (O00512 351-375): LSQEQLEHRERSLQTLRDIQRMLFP
Chain of Rab6a (P20340 2-208): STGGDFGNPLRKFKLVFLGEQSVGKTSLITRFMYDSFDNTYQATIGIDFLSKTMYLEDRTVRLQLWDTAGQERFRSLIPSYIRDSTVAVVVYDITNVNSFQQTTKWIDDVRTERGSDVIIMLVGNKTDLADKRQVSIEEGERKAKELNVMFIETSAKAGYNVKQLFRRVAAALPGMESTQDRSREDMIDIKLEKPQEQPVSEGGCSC
Chain of CK2α (P68400 whole entry): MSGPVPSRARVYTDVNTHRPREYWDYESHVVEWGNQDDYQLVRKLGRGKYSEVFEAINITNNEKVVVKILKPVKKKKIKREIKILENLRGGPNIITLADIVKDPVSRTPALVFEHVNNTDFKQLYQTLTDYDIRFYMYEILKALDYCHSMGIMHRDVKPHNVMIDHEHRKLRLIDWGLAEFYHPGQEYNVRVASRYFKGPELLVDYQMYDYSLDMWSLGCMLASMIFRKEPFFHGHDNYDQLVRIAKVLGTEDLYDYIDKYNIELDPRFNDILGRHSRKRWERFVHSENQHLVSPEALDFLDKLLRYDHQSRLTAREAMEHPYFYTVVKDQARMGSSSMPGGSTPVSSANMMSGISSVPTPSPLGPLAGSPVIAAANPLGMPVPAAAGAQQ
Chain of SPSB2 (Q99619 whole entry): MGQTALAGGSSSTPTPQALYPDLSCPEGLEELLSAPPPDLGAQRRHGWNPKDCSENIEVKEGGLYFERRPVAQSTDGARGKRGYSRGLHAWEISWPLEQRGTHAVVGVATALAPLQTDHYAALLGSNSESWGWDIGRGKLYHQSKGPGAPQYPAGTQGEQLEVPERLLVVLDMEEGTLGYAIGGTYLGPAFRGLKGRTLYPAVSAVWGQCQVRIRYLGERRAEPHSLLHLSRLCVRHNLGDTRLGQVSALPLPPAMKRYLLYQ

The Kd is the free concentration of one partner at which half of the binding sites on the other are occupied at equilibrium, for simple one-to-one binding. In the case of CypA (from UniProt P62937), the Kd was 2400 nM in [1], 12000 nM in series [2], 5000 nM in series [3] and 850 nM in series [4].
SPSB2 (from UniProt Q99619): the Kd in series [5] was 13.3 nM.
As to CK2α (from UniProt P68400), in [6], the Kd was 460 nM.
For the substance Rab6a (from UniProt P20340), the Kd in series [7] is 7800 nM.
Usually Ki stands for a measure of affinity in units of concentration, obtained from inhibition or displacement. On to β-catenin (from UniProt P35222), for which the Ki in series [8] was 960 nM; in [9], 1900 nM. The Kd in series [10] was 616 nM.
For the substance “TRF2 41-residue peptide (from UniProt Q15554)”, the Kd with RAP1 (Homo sapiens) is 16.5 nM.
For RAP1 (from UniProt Q9NYB0), in series [11], the Kd is 16.5 nM.
Turning to Keap1 (from UniProt Q14145), the Kd in series [12] was 27.3 nM.
